Data from patent US20250339569A1 (3B PHARMACEUTICALS, published 2025).
Values belong to the binder of their own block, whether it stands above or below them. Starred links: 1 amine or outer side, 2 acyl side, 3 side chain; linkers in the order of their positions; H or OH if unused. Positions of bridges follow the written chain, without caps; N, C: chain ends. Non-standard residues stand in square brackets, D forms with d. Primed or numbered codes have the meaning given here. No end group written: not given here. *: point of attachment. Aph(Hspy) = 4-amino-L-phenylalanine, ring amine acylated with 4-sulfamoyl-1H-pyrrole-2-carboxylic acid, NS(=O)(=O)c1c[nH]c(C(=O)Nc2ccc(C[C@H](N[*:1])C(=O)[*:2])cc2)c1; Aph(CCprAc) = 4-aminophenylalanine acylated on the ring amine with 1-cyano-1-cyclopropanecarboxylic acid, N#CC1(C(=O)Nc2ccc(C[C@H](N[*:1])C(=O)[*:2])cc2)CC1; Aph(MSAc) = 4-aminophenylalanine acylated on the ring amine with 2-methanesulfonylacetic acid, CS(=O)(=O)CC(=O)Nc1ccc(C[C@H](N[*:1])C(=O)[*:2])cc1; Aph(SaPr)″ = 4-amino-L-phenylalanine, ring amine acylated with 3-sulfamoylpropanoic acid, NS(=O)(=O)CCC(=O)Nc1ccc(C[C@H](N[*:1])C(=O)[*:2])cc1; Aph(SaPr) = 4-amino-L-phenylalanine, ring amine acylated by 3-sulfamoylpropanoic acid, NS(=O)(=O)CCC(=O)Nc1ccc(C[C@H](N[*:1])C(=O)[*:2])cc1; Aph(Iva) = 4-aminophenylalanine acylated on the ring amine with isovaleric acid, CC(C)CC(=O)Nc1ccc(C[C@H](N[*:1])C(=O)[*:2])cc1; Aph(FAc) = 4-aminophenylalanine acylated on the ring amine with fluoroacetic acid, O=C(CF)Nc1ccc(C[C@H](N[*:1])C(=O)[*:2])cc1; Aph(Prp) = 4-aminophenylalanine acylated on the ring amine with propionic acid, CCC(=O)Nc1ccc(C[C@H](N[*:1])C(=O)[*:2])cc1; Af3(DkpAc) = 3-amino-L-phenylalanine acylated on the ring amine with 2-(3,6-dioxopiperazin-2-yl)acetic acid; Af3(Cshx) = 3-amino-L-phenylalanine, ring amine acylated with 4-sulfamoylcyclohexane-1-carboxylic acid; DOTA(Lu) = O=C1CN2CCN3CCN(CC(=O)*)CCN(CC2)CC(=O)[O][Lu]([O]1)[O]C(=O)C3; Phe(3-NHCO(CH2)3SO2NH2) = N[C@@H](Cc1cccc(NC(=O)CCCS(N)(=O)=O)c1)C(=O)O; APAc″ = 2-(4-(amino)piperidin-1-yl)acetic acid, NC1CCN(CC(=O)*)CC1; DOTA = O=C(O)CN1CCN(CC(=O)O)CCN(CC(=O)*)CCN(CC(=O)O)CC1; PPAc = 4-carboxymethyl piperazine linker; mXylylene = c1cc(C[*:1])cc(C[*:2])c1; N6iQui = not defined here; PPAc″ = not defined here

Key:
[1] = biological target: T1, human carbonic anhydrase 4 (CAIV), biotinylated (Sino Biological Cat #10472-H08H) (human, UniProt P22748 19-283, biotinylated (sites not given)); test: SPR (Biacore T200), biotinylated CAIV captured with Biotin CAPture Kit; limit of the category in which no binding is told
T1 construct: Bought protein, biotinylated and captured with the Biotin CAPture Kit; also called hCAIV-bio; carbonic anhydrase IV

[2] = biological target: T2, human carbonic anhydrase 14 (CAXIV), biotinylated (Sino Biological Cat #10458-H08H) (human, UniProt Q9ULX7 16-290, biotinylated (sites not given)); test: SPR (Biacore T200), biotinylated CAXIV captured with Biotin CAPture Kit; limit of the category in which no binding is told
T2 construct: Bought protein, biotinylated and captured with the Biotin CAPture Kit; also called hCAXIV-bio; carbonic anhydrase XIV

[3] = biological target: T3, human carbonic anhydrase 12 (CAXII), biotinylated (Sino Biological Cat #10617-H08H) (human, UniProt O43570 25-301, biotinylated (sites not given)); test: SPR (Biacore T200), biotinylated CAXII captured with Biotin CAPture Kit; limit of the category in which no binding is told
T3 construct: Bought protein, biotinylated and captured with the Biotin CAPture Kit; also called hCAXII-bio; carbonic anhydrase XII

[4] = biological target: human carbonic anhydrase 9 (CAIX) (human, UniProt Q16790 38-459); test: FACS competition on HT-29 cells, competitor tracer 3BP-4149; category C = pIC50 6.1-7.0
Method: (§1) CAIX-expressing human HT-29 colorectal cancer cells (DSMZ, RRID: CVCL_0320) were cultured in McCoys's 5A modified medium (Biochrom, #F1015) including 10% fetal calf serum (FCS), 2 mM L-glutamine, 100 U/ml penicillin and 100 μg/mL streptomycin. Cells were detached with Accutase (Biolegend, #423201) and washed in FACS buffer (PBS including 1% FCS). Cells were diluted in FACS buffer to a final concentration of 500.000 cells per ml. 200 μL of the cell suspension were transferred to a u-shaped non-binding 96-well plate (Greiner) and cells were washed in ice-cold FACS buffer.
(§2) When biotinylated compounds were used an additional incubation step with 1 μg/mL APC-Streptavidin (Miltenyi; #130-106-791) in 50 μL FACS buffer for 30 minutes on ice was performed.
(§3) Cells were washed twice with ice-cold FACS buffer and analyzed in an Attune NxT flow cytometer (Thermo Fisher). Median fluorescence intensities (MFI) of the APC/Cy5-channel were calculated by Attune NxT software.

[5] = biological target: Fc-fusion protein of human carbonic anhydrase IX (human, UniProt Q16790 38-414); test: SPR, captured hCAIX-Fc; t1/2 category A: >15.0 min
[6] = biological target: T4, human carbonic anhydrase IV (CAIV), biotinylated (human, UniProt P22748 19-283, limits assumed, biotinylated); test: SPR, biotinylated CAIV captured (Biotin CAPture)
T4 construct: Bought (SinoBiological, Cat # printed 10472-1H081H); also called hCAIV-bio
Text: (§4) For each test compound, SPR raw data in the form of resonance units (RU) were plotted as sensorgrams using the Biacore™ T200 control software. The signal from the blank sensorgram was subtracted from that of the test compound sensorgram (blank corrected). The blank corrected sensorgram was corrected for baseline drift by subtracting the sensorgram of a SCK run without the test compound (running buffer only). […] Raw data and fit results were imported as text files in IDBS. The pKD value (negative decadic logarithm of dissociation constant) was calculated in the IDBS excel template.

[7] = biological target: T5, human carbonic anhydrase XII (CAXII), biotinylated (human, UniProt O43570 25-301, biotinylated); test: SPR, biotinylated CAXII captured (Biotin CAPture)
T5 construct: Bought (SinoBiological Cat #10617-H08H); also called hCAXII-bio
Text: as §4

[8] = biological target: T6, human carbonic anhydrase XIV (CAXIV), biotinylated (human, UniProt Q9ULX7 16-290, biotinylated); test: SPR, biotinylated CAXIV captured (Biotin CAPture)
T6 construct: Bought (SinoBiological Cat #10458-H08H); also called hCAXIV-bio
Text: as §4

[9] = biological target: human carbonic anhydrase IX (CAIX) (human, UniProt Q16790 38-459); test: FACS competition, HT-29 cells, tracer 3BP-2776; pIC50 category C: 6.1-7.0
Method: as §1, §2, §3

T6 sequence (Q9ULX7 16-290 limits assumed): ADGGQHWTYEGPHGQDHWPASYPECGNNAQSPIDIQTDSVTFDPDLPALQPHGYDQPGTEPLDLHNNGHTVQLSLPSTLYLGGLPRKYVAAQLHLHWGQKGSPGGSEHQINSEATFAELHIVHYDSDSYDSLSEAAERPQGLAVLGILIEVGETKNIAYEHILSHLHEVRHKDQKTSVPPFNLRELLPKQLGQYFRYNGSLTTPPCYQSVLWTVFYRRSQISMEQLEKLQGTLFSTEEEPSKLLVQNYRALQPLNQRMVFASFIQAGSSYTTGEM
T5 sequence (O43570 25-301 limits assumed): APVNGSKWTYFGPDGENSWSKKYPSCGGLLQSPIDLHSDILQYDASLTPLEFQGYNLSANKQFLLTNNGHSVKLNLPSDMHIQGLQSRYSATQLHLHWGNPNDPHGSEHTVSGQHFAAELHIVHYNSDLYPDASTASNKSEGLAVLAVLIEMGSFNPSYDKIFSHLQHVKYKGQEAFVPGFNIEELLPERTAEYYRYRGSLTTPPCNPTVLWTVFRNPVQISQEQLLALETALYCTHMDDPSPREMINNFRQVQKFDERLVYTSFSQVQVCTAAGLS
T4 sequence (P22748 19-283 limits assumed): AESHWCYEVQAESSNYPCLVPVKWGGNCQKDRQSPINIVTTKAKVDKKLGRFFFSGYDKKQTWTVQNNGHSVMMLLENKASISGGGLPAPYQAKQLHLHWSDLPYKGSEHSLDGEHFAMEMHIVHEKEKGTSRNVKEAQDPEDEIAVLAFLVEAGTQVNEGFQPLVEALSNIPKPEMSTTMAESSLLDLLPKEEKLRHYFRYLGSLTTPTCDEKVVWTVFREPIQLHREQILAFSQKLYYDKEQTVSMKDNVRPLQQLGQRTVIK
T2 sequence (Q9ULX7 16-290 limits assumed): as the sequence (Q9ULX7 16-290 limits assumed) above
T3 sequence (O43570 25-301 limits assumed): as the sequence (O43570 25-301 limits assumed) above
T1 sequence (P22748 19-283 limits assumed): as the sequence (P22748 19-283 limits assumed) above

B2: 3BP-4348 (peptide)
peptide: {DOTA-APAc″}-VYCE[dP]D[Aph(Iva)]LTWSC-NH2
modifications: linker 3-12 via mXylylene
pIC50 [4]: 6.1 to 7 pic50

B4: 3BP-4328 (peptide)
peptide: {DOTA-APAc″}-VYCE[dP]E(N6iQui)WLTWSC-NH2
modifications: linker 3-12 via mXylylene; reading uncertain
pIC50 [4]: 6.1 to 7 pic50

B5: 3BP-4357 (peptide)
peptide: {DOTA-APAc″}-VYCE[dP]D[Aph(CCprAc)]LTWSC-NH2
modifications: linker 3-12 via mXylylene
pIC50 [4]: 6.1 to 7 pic50

B6: 3BP-4288 (peptide)
peptide: {DOTA-APAc″}-VYCE[dP]D[Af3(DkpAc)]LTWSC-NH2
modifications: linker 3-12 via mXylylene
pIC50 [4]: 6.1 to 7 pic50

B8: 3BP-4360 (peptide)
peptide: {DOTA-APAc″}-VYCE[dP]D[Aph(MSAc)]LTWSC-NH2
modifications: linker 3-12 via mXylylene
pIC50 [4]: 6.1 to 7 pic50

B9: 3BP-4347 (peptide)
peptide: {DOTA-APAc″}-VYCE[dP]D[Aph(Prp)]LTWSC-NH2
modifications: linker 3-12 via mXylylene
pIC50 [4]: 6.1 to 7 pic50

B14: 3BP-4358 (peptide)
peptide: {DOTA-APAc″}-VYCE[dP]D[Aph(FAc)]LTWSC-NH2
modifications: linker 3-12 via mXylylene
pIC50 [4]: 6.1 to 7 pic50

The remaining lines, values ahead:

pKD [1]: < 6 | pKD [2]: < 6 | pKD [3]: < 6
B1: 3BP-4581: LuDOTA-Gln-[Cys(3MeBn)-Glu-pro-Asp-Aph(SaPr)-Leu-Thr-Trp-Ser-Cys]-NH2 (peptide)
peptide: {DOTA(Lu)}-QCE[dP]D[Aph(SaPr)]LTWSC-NH2
modifications: linker 2-11 via mXylylene; also: DOTA complexing non-radioactive lutetium
notes: also called natLu-3BP-4501

t1/2 (half-life of the complex, SPR) [5]: > 15 min | pKD [6]: < 6 pkd | pKD [7]: < 6 pkd | pKD [8]: < 6 pkd
B3: 3BP-4501 (peptide)
peptide: {DOTA}-QCE[dP]D[Aph(SaPr)]LTWSC-NH2
modifications: linker 2-11 via mXylylene
SMILES: CC(C)C[C@@H]1NC(=O)[C@H](Cc2ccc(NC(=O)CCS(N)(=O)=O)cc2)NC(=O)[C@H](CC(=O)O)NC(=O)[C@H]2CCCN2C(=O)[C@H](CCC(=O)O)NC(=O)[C@@H](NC(=O)[C@H](CCC(N)=O)NC(=O)CN2CCN(CC(=O)O)CCN(CC(=O)O)CCN(CC(=O)O)CC2)CSCc2cccc(c2)CSC[C@@H](C(N)=O)NC(=O)[C@H](CO)NC(=O)[C@H](Cc2c[nH]c3ccccc23)NC(=O)[C@H]([C@@H](C)O)NC1=O
notes: also called DPI-4501

t1/2 (half-life of the complex, SPR) [5]: > 15 min | pKD [6]: < 6 pkd | pKD [7]: < 6 pkd | pKD [8]: < 6 pkd
B7: 3BP-4452 (peptide)
peptide: {DOTA-PPAc″}-QCE[dP]D[Phe(3-NHCO(CH2)3SO2NH2)]LTWSC-NH2
modifications: linker 2-11 via mXylylene; reading uncertain
notes: also called DPI-4452

t1/2 (half-life of the complex, SPR) [5]: > 15 min | pKD [6]: < 6 pkd | pKD [7]: < 6 pkd | pKD [8]: < 6 pkd
B10: 3BP-4581 (peptide)
peptide: {DOTA}-QCE[dP]D[Aph(SaPr)″]LTWSC-NH2
modifications: linker 2-11 via mXylylene; also: Lu complexed in DOTA
notes: also called natLu-3BP-4501

pIC50 [9]: 6.1 to 7 pic50
B11: 3BP-4787 (peptide)
peptide: {DOTA-PPAc}-QCE[dP]D[Af3(Cshx)]LTWSC-NH2
modifications: linker 2-11 via mXylylene

pIC50 [9]: 6.1 to 7 pic50
B12: 3BP-4814 (peptide)
peptide: {DOTA-PPAc}-QCE[dP]D[Aph(Hspy)]LTWSC-NH2
modifications: linker 2-11 via mXylylene

t1/2 (half-life of the complex, SPR) [5]: > 15 min | pKD [6]: < 6 pkd | pKD [7]: < 6 pkd | pKD [8]: < 6 pkd
B13: 3BP-4555 (peptide)
peptide: QCE[dP]D[Phe(3-NHCO(CH2)3SO2NH2)]LTWSC-NH2
modifications: linker 2-11 via mXylylene; not fully specified (N-terminus); also: Lu complexed in DOTA
notes: also called natLu-DPI-4452
